# From patent US20150128304A1 (UNIVERSITY OF TOKYO, published 2015)
# Biological target: T1, DREB2A full-length fused to a YFP fragment (BiFC construct in pBI221) (Arabidopsis thaliana, UniProt O82132 1-335)
# T1 construct: domain: full-length; Transiently expressed in Arabidopsis protoplasts, MG132 added to stabilise DREB2A; not shown: N-terminal or C-terminal half of YFP
# Assay: BiFC (split YFP), transient expression in Arabidopsis protoplasts
# Method: Transient expression analysis using protoplasts from Arabidopsis thaliana mesophyll cells was conducted in accordance with the method of Yoo et al. [Yoo et al., Nat. Protoc., Vol. 2, pp. 1565-1572 ([…])]. To offer a brief explanation, the gene was introduced into the protoplast; after standing for 14 hours, MG132, a proteasome inhibitor, was added to make a final concentration of 50 μM to stabilize the DREB2A in the plant. After standing for another 4 hours, the YFP fluorescence was examined.
# Specifically, two plasmids containing DREB2A and Arabidopsis thaliana NF-YC10 were produced by amplifying full-length cDNA of DREB2A and full-length cDNA of Arabidopsis thaliana NF-YC10 by PCR and attaching each to either pBI221 [Qin et al., Plant Cell, Vol. 20, pp. 1693-1707 (2008)] which is an expression vector containing cDNA encoding the N terminal side or C terminal side of YFP, and a transient expression analysis study of both plasmids was conducted. Furthermore, one transferred from Feng Qin Ph.D. (Japan International Research Center for Agricultural Sciences, Japan) was used as the DREB2A full-length cDNA-ligated pBI221 plasmid. Full-length cDNA of Arabidopsis thaliana NF-YC10 was produced by amplification by PCR using the following primer pair and introduction at the XbaI/ClaI site of the above expression vector.
# T1 sequence (O82132 whole entry, the tested form may be a part): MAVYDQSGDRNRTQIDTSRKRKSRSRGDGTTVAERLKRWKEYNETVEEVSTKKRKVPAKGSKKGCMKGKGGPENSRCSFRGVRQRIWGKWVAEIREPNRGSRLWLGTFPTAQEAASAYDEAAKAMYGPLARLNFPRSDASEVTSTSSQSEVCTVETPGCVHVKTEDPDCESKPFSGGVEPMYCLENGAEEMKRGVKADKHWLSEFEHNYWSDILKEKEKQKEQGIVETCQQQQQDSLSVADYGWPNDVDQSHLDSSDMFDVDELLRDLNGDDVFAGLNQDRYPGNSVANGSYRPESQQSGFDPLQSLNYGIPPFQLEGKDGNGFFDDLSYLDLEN
binder,measurement,value
"Arabidopsis thaliana NF-YC10 full-length fused to a YFP fragment (BiFC construct in pBI221) (other, Transiently expressed in Arabidopsis thaliana mesophyll protoplasts; not shown: N-terminal or C-terminal half of YFP) MVSSKKPKEKKARSDVVVNKASGRSKRSSGSRTKKTSNKVNIVKKKPEIYEISESSSSDSVEEAIRGDEAKKSNGVVSKRGNGKSVGIPTKTSKNREEDDGGAEDAKIKFPMNRIRRIMRSDNSAPQIMQDAVFLVNKATEMFIERFSEEAYDSSVKDKKKFIHYKHLSSVVSNDQRYEFLADSVPEKLKAEAALEEWERGMTDAG",binding result,binds
